Earlier results as cited in paper PMC2846234.

Biological target: beta sliding clamp (Escherichia coli) (UniProt P0A988)
UniProt P0A988, sequence (P0A988 whole entry): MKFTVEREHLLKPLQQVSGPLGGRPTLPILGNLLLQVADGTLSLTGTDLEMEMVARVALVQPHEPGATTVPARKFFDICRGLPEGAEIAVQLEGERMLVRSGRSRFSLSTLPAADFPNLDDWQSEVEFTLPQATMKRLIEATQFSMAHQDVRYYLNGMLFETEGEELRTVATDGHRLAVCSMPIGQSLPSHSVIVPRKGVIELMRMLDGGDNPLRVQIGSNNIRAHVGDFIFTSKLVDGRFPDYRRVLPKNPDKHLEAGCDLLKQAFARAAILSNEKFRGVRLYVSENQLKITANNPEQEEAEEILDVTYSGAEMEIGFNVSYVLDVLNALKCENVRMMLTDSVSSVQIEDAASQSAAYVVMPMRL

DNA polymerase II (from UniProt P21189)
Kd: 32 nM
